Measurements: article PMC5434536

Biological target: TIP60, endogenous in C4-2 cells (human (endogenous in C4-2)) (UniProt Q92993)
Test: co-IP; endogenous proteins, C4-2 lysates; TIP60 immunoprecipitated with anti-TIP60; cells +/- 10 nM MB for 24 h; also cells transfected with siCtrl or siING3 and treated with MB; blot for AR

TIP60, endogenous in C4-2 cells (human (endogenous in C4-2)), sequence (Q92993 whole entry): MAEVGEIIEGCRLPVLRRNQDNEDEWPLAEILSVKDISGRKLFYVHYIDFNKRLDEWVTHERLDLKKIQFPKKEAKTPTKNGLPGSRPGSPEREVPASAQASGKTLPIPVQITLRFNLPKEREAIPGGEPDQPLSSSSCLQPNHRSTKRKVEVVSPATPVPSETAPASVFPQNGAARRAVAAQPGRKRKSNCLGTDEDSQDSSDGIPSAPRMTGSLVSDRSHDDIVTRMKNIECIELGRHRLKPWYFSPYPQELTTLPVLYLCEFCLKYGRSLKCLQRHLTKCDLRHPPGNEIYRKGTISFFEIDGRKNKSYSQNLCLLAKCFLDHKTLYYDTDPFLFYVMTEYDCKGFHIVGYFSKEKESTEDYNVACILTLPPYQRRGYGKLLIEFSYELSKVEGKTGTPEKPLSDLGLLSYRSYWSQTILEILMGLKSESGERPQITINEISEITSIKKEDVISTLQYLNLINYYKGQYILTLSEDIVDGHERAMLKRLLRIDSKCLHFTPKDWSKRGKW
androgen receptor (AR), endogenous in C4-2 cells, sequence (P10275 whole entry): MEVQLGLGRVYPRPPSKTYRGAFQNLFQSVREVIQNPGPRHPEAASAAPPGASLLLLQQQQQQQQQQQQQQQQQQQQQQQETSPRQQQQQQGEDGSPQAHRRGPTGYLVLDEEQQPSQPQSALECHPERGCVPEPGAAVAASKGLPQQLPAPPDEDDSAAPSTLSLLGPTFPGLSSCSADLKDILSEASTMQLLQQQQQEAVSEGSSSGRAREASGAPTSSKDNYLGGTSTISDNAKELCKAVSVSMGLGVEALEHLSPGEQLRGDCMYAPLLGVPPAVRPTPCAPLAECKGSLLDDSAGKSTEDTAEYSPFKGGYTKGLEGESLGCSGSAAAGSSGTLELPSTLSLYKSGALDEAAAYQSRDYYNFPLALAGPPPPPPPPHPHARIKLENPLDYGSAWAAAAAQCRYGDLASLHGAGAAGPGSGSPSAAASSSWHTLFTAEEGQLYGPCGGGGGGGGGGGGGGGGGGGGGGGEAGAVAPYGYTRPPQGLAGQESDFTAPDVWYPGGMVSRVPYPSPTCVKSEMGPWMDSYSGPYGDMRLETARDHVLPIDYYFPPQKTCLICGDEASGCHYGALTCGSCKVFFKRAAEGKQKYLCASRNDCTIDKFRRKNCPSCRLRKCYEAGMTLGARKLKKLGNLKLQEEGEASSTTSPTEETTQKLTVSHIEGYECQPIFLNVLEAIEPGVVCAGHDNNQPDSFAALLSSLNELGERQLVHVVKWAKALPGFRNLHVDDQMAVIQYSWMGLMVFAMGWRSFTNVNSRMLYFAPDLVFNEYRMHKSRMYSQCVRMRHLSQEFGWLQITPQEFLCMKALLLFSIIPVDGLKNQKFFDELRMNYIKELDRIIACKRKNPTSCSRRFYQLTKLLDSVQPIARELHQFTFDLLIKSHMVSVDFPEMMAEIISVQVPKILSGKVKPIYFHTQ

fold reduction of the AR-TIP60 association with siING3 against siCtrl: 3 fold
Substance: androgen receptor (AR), endogenous in C4-2 cells (from UniProt P10275 1-920)
